According to the DeepSol protein solubility set:

Assay: soluble on expression in E. coli; label from the status in PepcDB or PDB records

Sequence | soluble on expression in E. coli
STNAEAVTVTNKQIIFPDYVTGFPKESDLKITTTTIDLRLPEGSTSVLVKNLYLSCDPYMRICMGKPDPLSSSLVPPYKTGVPIIGLGVSKVIDSGHPDYKKGDLLWGLVGWEEYSVITLTTYSHFKIEHTDVPLSYYTGLLGMPGMTAYAGFYEVCSPKKGETVFVSAASGAVGQLVGQFAKLMGCYVVGSAGSKEKVYLLKTKFGFDDAFNYKEEKDFSAALKRYFPEGIDIYFENVGGKMLDAVLINMKLHGRVAVCGMISQYNLVDPEGVHNLPTILYKRIQLQGFGVCDFYDKYPKFLDFVLPYIREGKITYVEDIAEGFESGPSALLGLFEGKNVGKQLFVVARE | soluble
GSKGNIRVIARVRPVTKEDGEGPEATNAVTFDADDDSIIHLLHKGKPVSFELDKVFSPQASQQDVFQEVQALVTSCIDGFNVCIFAYGQTGAGKTYTMEGTAENPGINQRALQLLFSEVQEKASDWEYTITVSAAEIYNEVLRDLLGKEPQEKLEIRLCPDGSGQLYVPGLTEFQVQSVDDINKVFEFGHTNRTTEFTNLNEHSSRSHALLIVTVRGVDCSTGLRTTGKLNLVDLAGSERVGKSGAEGSRLREAQHINKSLSALGDVIAALRSRQGHVPFRNSKLTYLLQDSLSGDSKTLMVVQVSPVEKNTSETLYSLKFAERVRSVEL | soluble
MVAGFTVHSGPHHVPHRDMTHHSRPPGHAPRVTILMPVYNGEKYLAAAMESILDQTFRDFILLIIDDGSSDSSLAIARSFGDPRVQVERNPKNLGLVKTLNRGLDLVQTEFVARMDCDDIALPDRLEKQIAFLDENPDIGMCGTAYELFHESLRQTIRPPCRHEEIVYGLLDDNVFLHSSVIVRMEVLNRHGLRYREDYRLAEDYELWARLARYTHIGNLPQVLVRYRSHPENVSNTNKGEQIATRDRVRLEHLESFGLAPAADQKTLHIDLFSLAFQGSPDQLADARRWLEALARAVSTRCGLPLGRLHRDFALLWYSACGRSAHHGLTVLFSYLKSAMAWKGPKSYILKLLFRCLMRDPIPAVTK | not soluble
MEEPSELGASKEKPIELNEDDESSDGENSVIILDSDTEPEDGAGGEEDEDNGEDSEEEDEEDSDEEESEDDSDSSVDTESVNSVWSNVDEENGEEITTEAAEAKIIKKFEKAIFSIADNDSETGRRILEKLLNDAIIATYNQENPDFELLDEPPRLAKMLQVFIASHRNLAKLCEKEVENADEKEKEQLKSEEIQHLCQVLAYEPNSSDIWLDVALKSIEFGDLNFSKYAFKRCETLKESLESHATLLYLTCDYNESLMIMKQFQEQNDVLNDKLKYLKHKIRSTNQYYKLSCDRIFEEDEVYADVQSVEKRKIQDFDERIEALRSRVVGKIEQRDVDFRDEEEKCSVIPIRIEADQE | not soluble
MSLDPAHTPDPAHPHDQEAAHAEDPARAIGSARLLDVDPLLDDPGTRIVVCCGSGGVGKTTTAAALGLRAAERGRKVVVLTIDPARRLAQSMGIDSLDNIPRRVKGIDDSASGELHAMMLDMKRTFDEIVEAHADRERAAAILSNPFYQSLSAGFAGTQEYMAMEKLGQLRARDEWDLIIVDTPPSRSALDFLDAPKRLGSFLDGKLIRLLTAPAKLGGRAGMKFLNVGMSMMTGTLGKLLGGQLLKDVQTFVAAMDTTFGGFRTRADATYKLLQAPGTAFLVVAAPERDALREAAYFVERLAAEDMPLAGLVLNRVHGSGAAQLSAERALAAAENLDLAADPGSTENLEESRIVDQEGGKAGLRNSPDTYGSSESPADLTPADQTPASSEGSPATDGAVEQLTAGLLILHAERMQLLSREQRTRDRFAALHPEVAVAEVAALPGDVHDLTGLRDIGDRLAANRPELPTSPGGALEHHHHHH | soluble
MAHHHHHHMEAVFYAFASFGTAPTKEMDNAHFSKMLKEAKIIGKTFTSTDADLLFNKIKAKGARKITFTEFNTRALPDIATKLKMTPEQVAEILTKASPASNSTKAEAVKFHDDKNLYTGVYKAGGPTNVDRNAGSLSGVVDRRVDQVDVRGTTSSQK | soluble
EQPFYRTKVKLKKEIVTLGVPGVDPNKQVGQYVEAKDWNALISDPEVLLIDTRNDYEVAIGTFEGAVDPKTRSFREFPEYIKAHYDPARHKKVAMFCTGGIRCEKASSYMLGAGFEEVFHLKGGILKYLEEVPQEQSLWRGDCFVFDNRVTVRHDLSEGEYDQCHA | not soluble
